Where a chain is given by its changes, count along the chain named. Values belong to the molecule of their own block, whether it stands above or below them.
What was measured:
[1] = target: Human C-type lectin-like molecule-1 (CLL-1) on cells (human) (UniProt Q5QGZ9); test: flow cytometry histogram on HL60 AML cells
[2] = target: Human C-type lectin-like molecule-1 (CLL-1) on cells (human) (UniProt Q5QGZ9); test: flow cytometry histogram on THP-1 AML cells
[3] = target: Human C-type lectin-like molecule-1 (CLL-1) on cells (human) (UniProt Q5QGZ9); test: flow cytometry histogram on Molm14 AML cells; the bold label in the same panel prints 67.1%
[4] = target: Human C-type lectin-like molecule-1 (CLL-1) on cells (human) (UniProt Q5QGZ9); test: flow cytometry histogram on U937 AML cells
[5] = target: Human C-type lectin-like molecule-1 (CLL-1) on cells (human) (UniProt Q5QGZ9); test: flow cytometry histogram on Molm13 AML cells
[6] = target: Human C-type lectin-like molecule-1 (CLL-1) on cells (human) (UniProt Q5QGZ9); test: flow cytometry dot plot on Molm14 WT cells, CLL-1_APC_A against CD123_BV421_A (D-Q1: 0.14%, D-Q3: 0.28%, D-Q4: 18.03%); in the Molm14 CLL-1KO pool the same quadrant holds D-Q2: 10.47% and D-Q4: 89.48%
[7] = target: T1, CLL-1-ECD (human, UniProt Q5QGZ9 65-265); test: AlphaLISA sandwich assay with Anti-6xHis Acceptor beads, Protein A Donor beads and CLL-1-ECD
T1 construct: extracellular domain; also called CLL-1-ECD antigen
T1 sequence (looked up): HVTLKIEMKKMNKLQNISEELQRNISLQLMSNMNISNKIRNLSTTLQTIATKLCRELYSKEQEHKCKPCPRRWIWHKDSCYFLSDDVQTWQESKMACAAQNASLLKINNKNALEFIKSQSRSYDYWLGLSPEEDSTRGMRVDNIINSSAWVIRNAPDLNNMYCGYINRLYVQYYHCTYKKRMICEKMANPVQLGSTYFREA
Procedure: (§1) In order to characterize the antigen binding capacities of anti-CLL-1 scFv-Fc antibodies, an AlphaLISA sandwich assay was set up with Anti-6×His Acceptor beads, Protein A Donor beads, and CLL-1-ECD. By AlphaLISA assay, the Kd values of each anti-CLL-1 scFv-Fc antibody were determined.

[8] = target: T1, CLL-1-ECD; test: AlphaLISA; column head 'Affinity: Kd (M) by AlphaLISA'
Procedure: as §1

[9] = target: T1, CLL-1-ECD; test: AlphaLISA; column head 'Affinity: Kd (M) by AlphaLISA'; clone printed as 56D01, FIG. 3A on the same sheet prints 65D01
Procedure: as §1

[10] = target: T2, Human C-type lectin-like molecule-1 (CLL-1) on cells (human, UniProt Q5QGZ9 1-265); test: flow cytometry, overlaid histograms on K562-CLL-1 OFP cells; panel title 'Anti-CLL-1 scFv-Fc Abs_2 nM' (legend paragraph 56 says 0.2 nM); control: 2nd antibody only [B]
T2 construct: whole, on cells; also called CLL-1 antigens; MICL
T2 sequence (looked up): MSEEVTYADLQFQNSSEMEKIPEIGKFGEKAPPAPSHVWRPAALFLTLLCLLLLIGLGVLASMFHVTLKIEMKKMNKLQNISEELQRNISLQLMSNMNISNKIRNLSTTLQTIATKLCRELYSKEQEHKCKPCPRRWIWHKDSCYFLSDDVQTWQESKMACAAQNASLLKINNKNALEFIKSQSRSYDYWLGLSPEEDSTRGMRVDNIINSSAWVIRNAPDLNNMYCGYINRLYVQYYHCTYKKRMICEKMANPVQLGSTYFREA
Procedure: FIG. 1 illustrates screening of the anti-CLL-1 antibodies disclosed herein by flow cytometry: (A) Representative flow cytometry dot plots. (B) Overlapping histograms. Each scFv-Fc antibody was stained at 0.2 nM with paired K562-CLL-1 and K562 cells, followed by staining with fluorochrome-conjugated 2nd antibody for flow cytometry analysis;
As illustrated in FIGS. 1A-B and 2, purified scFv-Fc antibodies were further assessed by flow cytometry for their binding to CLL-1 antigens of the K562-Luc-CLL-1 transfectant as well as the CLL-1+ AML cell line, U937, MOLM-14 and THP-1. K562 cells, a human erythroleukemic cell line, and Raji-Luc cells, a human B lymphoblastoid cell line, were used as the CLL-1-negative control cell lines. Each scFv-Fc antibody was screened with six cell lines, including K562, K562-CLL-1, U937, MOLM-14, THP-1 and Raji. Although the binding profiles of each clone varied with cell lines tested, the Top 3 clones with stronger binding pattern were selected, and the ranges of binding percentage were 52%˜99% for K562-Luc-CLL-1, 25%˜98% for U937, 6%˜37% for MLOM-14 and 1%-36% for THP-1.

B1: anti-CLL-1 scFv-Fc antibody 72C10 (Fc fusion)
VH: EVQLVESGGGLVQPGGSLRLSCAASGFTFSVNAMHWVRQAPGKGLEWVSTISGSDGHKYYADSVKSRFTISRDNSKNTLYLQMNSLRAEDTAVYYCARDVDSEIGDGYHEDIWGQGTLVTVSS
VL: DIQMTQSPSSLSASVGDRVTITCRASQSVTNALNWYQQKPGKAPKLLIYAASNLQSGVPSRFSGSGSGTDFTLTISSLQPEDFATYYCQQTNNSPATFGQGTKVEIKR
notes: also called anti-CLL-1-72C10
EC50 (read off the curve) [7]: ~1 nM | Kd [8]: 1.1 nM

B2: anti-CLL-1 scFv-Fc antibody 61H08 (Fc fusion)
VH: EVQLVESGGGLVQPGGSLRLSCAASGFTFDDYGMHWVRQAPGKGLEWVSGIWPSGGNKEYADSVKGRFTISRDNSKNTLYLQMNSLRAEDTAVYYCARLLALTYDYFDYWGQGTLVTVSS
VL: DIQMTQSPSSLSASVGDRVTITCRASQGISSYLAWYQQKPGKAPKLLIYDASTLQSGVPSRFSGSGSGTDFTLTISSLQPEDFATYYCQQSYSTPFTFGQGTKVEIKR
notes: also called anti-CLL-1-61H08
Kd [8]: 4.9 nM

B3: anti-CLL-1 scFv-Fc antibody 65D01 (Fc fusion)
VH: QVQLQQWGAGLLKPSETLSLTCAVYGGSFSGYYWSWIRQPPGKGLEWIGEINHSGSTNYNPSLKSRVTISVDTSKNQFSLKLSSVTAADTAAYYCARSPLQWLDDAFDIWGQGTMVTVSS
VL: QSVLTQPPSVSAAPGQRVTISCSGSSSNIGSNYVSWYQQLPGTAPKLLIYDNNERPSGIPDRFSGSKSATSATLDITGLQTGDEADYFCGTWDNSPSTDWVFGGGTKVTVLG
notes: also called anti-CLL-1-65D01
Kd [9]: 2.8 nM

Other lines, results leading:

% positive cells (gate D) [1]: 74.4% | % positive cells (gate D) [2]: 71% | % positive cells (gate D) [3]: 67.6% | % positive cells (gate D) [4]: 99.3% | % positive cells (gate D) [5]: 21.6% | % cells in quadrant D-Q2 (CLL-1 APC+ CD123 BV421+) [6]: 81.5%
Molecule: anti-human CLL-1-APC antibody (clone REA431)

binding result [10]: binds
B4: 59A09 (Fc fusion)
VH: EVQLVESGGGLVQPGGSLRLSCAASGFTFTDYYIHWVRQAPGKGLEWVSMISPSGGGEAYYADSVKGRFTISRDNSKNTLYLQMNSLRAEDTAVYYCARAHDFDDFDYWGQGTLVTVSS
VL: DIQMTQSPSSLSASVGDRVTITCRASQSIRYSLAWYQQKPGKASKLLIYDASTLQSGVPSRFSGSGSGTDFTLTISSLQPEDFATYYCQQYNNSPLTFGQGTKVEIK
notes: anti-CLL-1 scFv-Fc clone; also called anti-CLL-1-59A09; K562-CLL-1 OFP 59A09

binding result [10]: binds
B5: 61A07 (Fc fusion)
VH: EVQLVESGGGLVQPGGSLRLSCAASGFTFSNHWMHWVRQAPGKGLEWVSSISGAGGGKSYADSVKGRFTISRDNSKNTLYLQMNSLRAEDTAVYYCARDESSYAYDGDYWGQGTLVTVSS
VL: B4 VL with S26N, Y31N, S32Y, A34N, S44P, D50A, Y91N, N92T, N93S, L96S
notes: anti-CLL-1 scFv-Fc clone; also called anti-CLL-1-61A07; K562-CLL-1 OFP 61A07

From patent US20240398863A1 (ARCE THERAPEUTICS, published 2024)
